Test results taken from patent US20050064507.

Columns and labels:
[1] = molecular target: T1, ERN1 peptide KLAVGRHSFSRRSGV (SEQ ID NO:94) (not fully specified)
T1 chain: KLAVGRHSFSRRSGV

[2] = molecular target: T2, MCM2 peptide VQRHRSMRKTFARYLSFRRD (SEQ ID NO:129) (not fully specified)
T2 chain: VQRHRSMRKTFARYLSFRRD

[3] = molecular target: T3, ankyrin R peptide DLIEGRKGAQIVKRASLKRG (SEQ ID NO:152) (not fully specified)
T3 chain: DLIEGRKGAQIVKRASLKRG

[4] = molecular target: T4, ANK1 peptide AQIVKRASLKRGKQ (SEQ ID NO:90) (not fully specified)
T4 chain: AQIVKRASLKRGKQ

[5] = molecular target: T5, M1 muscarinic receptor peptide RWDKRRWRKIPKRPGSVHRT (SEQ ID NO:155) (not fully specified)
T5 chain: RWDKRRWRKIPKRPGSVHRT

[6] = molecular target: T6, GABA A receptor beta 2 peptide ERHVAQKKSRLRRRASQLKI (SEQ ID NO:142) (not fully specified)
T6 chain: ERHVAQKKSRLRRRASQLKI

[7] = molecular target: T7, beta adducin peptide KKKFRTPSFLKKSKK (SEQ ID NO:135) (not fully specified)
T7 chain: KKKFRTPSFLKKSKK

[8] = molecular target: T8, MARCKS peptide KKKRFSFKKSFKLSGFSFKK (SEQ ID NO:111) (not fully specified)
T8 chain: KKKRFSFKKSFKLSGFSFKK

[9] = molecular target: T9, slp4 peptide TYLLPDKSRQGKRKTSIKRD (SEQ ID NO:153) (not fully specified)
T9 chain: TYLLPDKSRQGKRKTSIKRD

[10] = molecular target: T10, dag kinase zeta peptide KKKKRASFKRKSSKKG (SEQ ID NO:114) (not fully specified)
T10 chain: KKKKRASFKRKSSKKG

[11] = molecular target: T11, calcium channel, voltage-dependent, L type, alpha peptide RDIRQSPKRGFLRSASLGRR (SEQ ID NO:147) (not fully specified)
T11 chain: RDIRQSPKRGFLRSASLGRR

[12] = molecular target: T12, p164-RhoGEF peptide PRLIRRGSKKRPAR (SEQ ID NO:82) (not fully specified)
T12 chain: PRLIRRGSKKRPAR

[13] = molecular target: T13, kinesin 3C peptide LEKRGMLGKRPRRKSSRRKK (SEQ ID NO:133) (not fully specified)
T13 chain: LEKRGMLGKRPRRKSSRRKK

[14] = molecular target: T14, GABRB2 peptide QKKSRLRRRASQLKI (SEQ ID NO:84) (not fully specified)
T14 chain: QKKSRLRRRASQLKI

[15] = molecular target: T15, p47phox peptide QAQRQIKRGAPPRRSSIRNA (SEQ ID NO:146) (not fully specified)
T15 chain: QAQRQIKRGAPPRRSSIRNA

[16] = molecular target: T16, AF15q14 peptide GFLNEPLSSKSQRRKSLKLK (SEQ ID NO:132) (not fully specified)
T16 chain: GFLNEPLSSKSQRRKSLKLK

[17] = molecular target: T17, plectin peptide PLKEKKRERKTSSKSSVRKR (SEQ ID NO:125) (not fully specified)
T17 chain: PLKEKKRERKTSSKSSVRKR

[18] = molecular target: T18, PKD1 peptide RVVQSVKHTKRKSSTVMK (SEQ ID NO:149) (not fully specified)
T18 chain: RVVQSVKHTKRKSSTVMK

[19] = molecular target: T19, NCF1 peptide GAPPRRSSIRNAH (SEQ ID NO:101) (not fully specified)
T19 chain: GAPPRRSSIRNAH

[20] = molecular target: T20, NF1 peptide SQVQKQRSAGSFKRNSIKKI (SEQ ID NO:127) (not fully specified)
T20 chain: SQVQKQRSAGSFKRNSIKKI

[21] = molecular target: T21, NMDAR1 peptide RAITSTLASSFKRRR (SEQ ID NO:122) (not fully specified)
T21 chain: RAITSTLASSFKRRR

[22] = molecular target: T22, SPTBN4 peptide EGGDRRASGRRK (SEQ ID NO:110) (not fully specified)
T22 chain: EGGDRRASGRRK

[23] = molecular target: T23, ubiquitin specific protease 8 peptide RARRDSLKKIEIW (SEQ ID NO:136) (not fully specified)
T23 chain: RARRDSLKKIEIW

[24] = molecular target: T24, nuclear RNA export factor 3 peptide VRYTPYTISPYNRKGSFRKQ (SEQ ID NO:143) (not fully specified)
T24 chain: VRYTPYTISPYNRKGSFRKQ

[25] = molecular target: T25, NIK peptide TEGKMARVAWKGKRRSKARK (SEQ ID NO:164) (not fully specified)
T25 chain: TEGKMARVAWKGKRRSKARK

[26] = molecular target: T26, KCNH2 peptide RQRKRKLSFRRRTDKD (SEQ ID NO:86) (not fully specified)
T26 chain: RQRKRKLSFRRRTDKD

[27] = molecular target: T27, PARIS1 peptide EYLERRASRRRAV (SEQ ID NO:89) (not fully specified)
T27 chain: EYLERRASRRRAV

[28] = molecular target: T28, AKAP12 peptide AGWRKKTSFRKPKED (SEQ ID NO:99) (not fully specified)
T28 chain: AGWRKKTSFRKPKED

[29] = molecular target: T29, CHRM1 peptide RKIPKRPGSVHRTPSRQ (SEQ ID NO:83) (not fully specified)
T29 chain: RKIPKRPGSVHRTPSRQ

[30] = molecular target: T30, PPP1R14A peptide QKRHARVTVKYDRRE (SEQ ID NO:107) (not fully specified)
T30 chain: QKRHARVTVKYDRRE

[31] = molecular target: T31, dag kinase iota peptide PQNSLKASNRKKKRTSFKRK (SEQ ID NO:151) (not fully specified)
T31 chain: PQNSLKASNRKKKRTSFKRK

B1: PKC-epsilon (protein)
chain: MVVFNGLLKIKICEAVSLKPTAWSLRHAVGPRPQTFLLDPYIALNVDDSRIGQTATKQKTNSPAWHDEFVTDVCNGRKIELAVFHDAPIGYDDFVANCTIQFEELLQNGSRHFEDWIDLEPEGRVYVIIDLSGSSGEAPKDNEERVFRERMRPRKRQGAVRRRVHQVNGHKFMATYLRQPTYCSHCRDFIWGVIGKQGYQCQVCTCVVHKRCHELIITKCAGLKKQETPDQVGSQRFSVNMPHKFGIHNYKVPTFCDHCGSLLWGLLRQGLQCKVCKMNVHRRCETNVAPNCGVDARGIAKVLADLGVTPDKITNSGQRRKKLIAGAESPQPASGSSPSEEDRSKSAPTSPCDQEIKELENNIRKALSFDNRGEEHRAASSPDGQLMSPGENGEVRQGQAKRLGLDEFNFIKVLGKGSFGKVMLAELKGKDEVYAVKVLKKDVILQDDDVDCTMTEKRILALARKHPYLTQLYCCFQTKDRLFFVMEYVNGGDLMFQIQRSRKFDEPRSRFYAAEVTSALMFLHQHGVIYRDLKLDNILLDAEGHCKLADFGMCKEGILNGVTTTTFCGTPDYIAPEILQELEYGPSVDWWALGVLMYEMMAGQPPFEADNEDDLFESILHDDVLYPVWLSKEAVSILKAFMTKNPHKRLGCVASQNGEDAIKQHPFFKEIDWVLLEQKKIKPPFKPRIKTKRDVNNFDQDFTREEPVLTLVDEAIVKQINQEEFKGFSYFGEDLMP
in vitro phosphorylation (% of best substrate) [1]: 13
in vitro phosphorylation, 1 uM peptide (% of best substrate) [2]: 65
in vitro phosphorylation, 1 uM peptide (% of best substrate) [3]: 25
in vitro phosphorylation (% of best substrate) [4]: 49
in vitro phosphorylation, 1 uM peptide (% of best substrate) [5]: 26
in vitro phosphorylation, 1 uM peptide (% of best substrate) [6]: 28
in vitro phosphorylation, 1 uM peptide (% of best substrate) [7]: 27
in vitro phosphorylation (% of best substrate) [8]: 12
in vitro phosphorylation, 1 uM peptide (% of best substrate) [9]: 24
in vitro phosphorylation, 1 uM peptide (% of best substrate) [10]: 100
in vitro phosphorylation, 1 uM peptide (% of best substrate) [11]: 26
in vitro phosphorylation (% of best substrate) [12]: 72
in vitro phosphorylation, 1 uM peptide (% of best substrate) [13]: 31
in vitro phosphorylation (% of best substrate) [14]: 52
in vitro phosphorylation, 1 uM peptide (% of best substrate) [15]: 28
in vitro phosphorylation, 1 uM peptide (% of best substrate) [16]: 47
in vitro phosphorylation, 1 uM peptide (% of best substrate) [17]: 48
in vitro phosphorylation, 1 uM peptide (% of best substrate) [18]: 27
in vitro phosphorylation (% of best substrate) [19]: 19
in vitro phosphorylation, 1 uM peptide (% of best substrate) [20]: 32
in vitro phosphorylation, 1 uM peptide (% of best substrate) [21]: 72
in vitro phosphorylation (% of best substrate) [22]: 4
in vitro phosphorylation, 1 uM peptide (% of best substrate) [23]: 33
in vitro phosphorylation, 1 uM peptide (% of best substrate) [24]: 21
in vitro phosphorylation, 1 uM peptide (% of best substrate) [25]: 12
in vitro phosphorylation (% of best substrate) [26]: 63
in vitro phosphorylation (% of best substrate) [27]: 45
in vitro phosphorylation (% of best substrate) [28]: 27
in vitro phosphorylation (% of best substrate) [29]: 47
in vitro phosphorylation (% of best substrate) [30]: 7
in vitro phosphorylation, 1 uM peptide (% of best substrate) [31]: 24

B2: PKC-theta (protein)
chain: MSPFLRIGLSNFDCGSCQSCQGEAVNPYCAVLVKEYVESENGQMYIQKKPTMYPPWDSTFDAHINKGRVMQIIVKGKNVDLISETTVELYSLAERCRKNNGKTEIWLELKPQGRMLMNARYFLEMSDTKDMNEFETEGFFALHQRRGAIKQAKVHHVKCHEFTATFFPQPTFCSVCHEFVWGLNKQGYQCRQCNAAIHKKCIDKVIAKCTGSAINSRETMFHKERFKIDMPHRFKVYNYKSPTFCEHCGTLLWGLARQGLKCDACGMNVHHRCQTKVANLCGINQKLMAEALAMIESTQQARCLRDTEQIFREGPVEIGLPCSIKNEARPPCLPTPGKREPQGISWESPLDEVDKMCHLPEPELNKERPSLQIKLKIEDFILHKMLGKGSFGKVFLAEFKKTNQFFAIKALKKDVVLMDDDVECTMVEKRVLSLAWEHPFLTHMFCTFQTKENLFFVMEYLNGGDLMYHIQSCHKFDLSRATFYAAEIILGLQFLHSKGIVYRDLKLDNILLDKDGHIKIADFGMCKENMLGDAKTNTFCGTPDYIAPEILLGQKYNHSVDWWSFGVLLYEMLIGQSPFHGQDEEELFHSIRMDNPFYPRWLEKEAKDLLVKLFVREPEKRLGVRGDIRQHPLFREINWEELERKEIDPPFRPKVKSPFDCSNFDKEFLNEKPRLSFADRALINSMDQNMFRNFSFMNPGMERLIS
in vitro phosphorylation (% of best substrate) [1]: 86
in vitro phosphorylation, 1 uM peptide (% of best substrate) [2]: 48
in vitro phosphorylation, 10 uM peptide (% of best substrate) [2]: 25
in vitro phosphorylation, 1 uM peptide (% of best substrate) [3]: 31
in vitro phosphorylation, 10 uM peptide (% of best substrate) [3]: 30
in vitro phosphorylation (% of best substrate) [4]: 38
in vitro phosphorylation, 1 uM peptide (% of best substrate) [5]: 23
in vitro phosphorylation, 10 uM peptide (% of best substrate) [5]: 26
in vitro phosphorylation, 1 uM peptide (% of best substrate) [6]: 28
in vitro phosphorylation, 10 uM peptide (% of best substrate) [6]: 37
in vitro phosphorylation, 1 uM peptide (% of best substrate) [7]: 30
in vitro phosphorylation, 10 uM peptide (% of best substrate) [7]: 36
in vitro phosphorylation (% of best substrate) [8]: 18
in vitro phosphorylation, 1 uM peptide (% of best substrate) [9]: 22
in vitro phosphorylation, 10 uM peptide (% of best substrate) [9]: 18
in vitro phosphorylation, 1 uM peptide (% of best substrate) [10]: 100
in vitro phosphorylation, 10 uM peptide (% of best substrate) [10]: 86
in vitro phosphorylation, 1 uM peptide (% of best substrate) [11]: 20
in vitro phosphorylation, 10 uM peptide (% of best substrate) [11]: 69
in vitro phosphorylation (% of best substrate) [12]: 49
in vitro phosphorylation, 1 uM peptide (% of best substrate) [13]: 46
in vitro phosphorylation, 10 uM peptide (% of best substrate) [13]: 53
in vitro phosphorylation (% of best substrate) [14]: 87
in vitro phosphorylation, 1 uM peptide (% of best substrate) [15]: 33
in vitro phosphorylation, 10 uM peptide (% of best substrate) [15]: 34
in vitro phosphorylation, 1 uM peptide (% of best substrate) [16]: 34
in vitro phosphorylation, 10 uM peptide (% of best substrate) [16]: 40
in vitro phosphorylation, 1 uM peptide (% of best substrate) [17]: 39
in vitro phosphorylation, 10 uM peptide (% of best substrate) [17]: 100
in vitro phosphorylation, 1 uM peptide (% of best substrate) [18]: 13
in vitro phosphorylation, 10 uM peptide (% of best substrate) [18]: 14
in vitro phosphorylation (% of best substrate) [19]: 29
in vitro phosphorylation, 1 uM peptide (% of best substrate) [20]: 45
in vitro phosphorylation, 10 uM peptide (% of best substrate) [20]: 58
in vitro phosphorylation, 1 uM peptide (% of best substrate) [21]: 66
in vitro phosphorylation, 10 uM peptide (% of best substrate) [21]: 42
in vitro phosphorylation (% of best substrate) [22]: 22
in vitro phosphorylation, 1 uM peptide (% of best substrate) [23]: 42
in vitro phosphorylation, 10 uM peptide (% of best substrate) [23]: 28
in vitro phosphorylation, 1 uM peptide (% of best substrate) [24]: 25
in vitro phosphorylation, 10 uM peptide (% of best substrate) [24]: 27
in vitro phosphorylation, 1 uM peptide (% of best substrate) [25]: 24
in vitro phosphorylation, 10 uM peptide (% of best substrate) [25]: 20
in vitro phosphorylation (% of best substrate) [26]: 38
in vitro phosphorylation (% of best substrate) [27]: 60
in vitro phosphorylation (% of best substrate) [28]: 25
in vitro phosphorylation (% of best substrate) [29]: 92
in vitro phosphorylation (% of best substrate) [30]: 40
in vitro phosphorylation, 1 uM peptide (% of best substrate) [31]: 25
in vitro phosphorylation, 10 uM peptide (% of best substrate) [31]: 19
